Assay [1] concerns the target T1, human CD3 epsilon (human, UniProt P07766 23-126, limits assumed).
T1 construct: also called huCD3e
Briefly: Octet, crude lysate. An excerpt: To achieve this, Pool 1 was created, which included 74 paTCE molecules, each containing PSMA.5 and one of the 74 CD3.23 mutation variants. Single mutations were chosen based on analyses including CD3.23 PTE score analysis (using internal PTE algorithm v12) and structural analysis. Structural considerations included: possible contact disruption, anticipated steric clashes, side chain charge maintenance and possible pockets filling. Stability and affinity of the individually expressed molecules in the form of crude lysate was evaluated by Octet (ForteBio).

In assay [2] the target is T1, human CD3 epsilon. Briefly: Octet, crude lysate. An outline of the steps:
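Binding of anti-CD3 paTCE variants to human and cynomolgus CD3 measured by Octet, using either purified protein or individually expressed crude lysate. Variants were paired with PSMA.262, except CD3.23, which was paired with PSMA.5.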
This is another data set of the same source.

For assay [3], the target named is T2, human PSMA (human, UniProt Q04609 44-750, limits assumed).
T2 construct: also called huPSMA; hPSMA
T2 sequence (Q04609 44-750 limits assumed): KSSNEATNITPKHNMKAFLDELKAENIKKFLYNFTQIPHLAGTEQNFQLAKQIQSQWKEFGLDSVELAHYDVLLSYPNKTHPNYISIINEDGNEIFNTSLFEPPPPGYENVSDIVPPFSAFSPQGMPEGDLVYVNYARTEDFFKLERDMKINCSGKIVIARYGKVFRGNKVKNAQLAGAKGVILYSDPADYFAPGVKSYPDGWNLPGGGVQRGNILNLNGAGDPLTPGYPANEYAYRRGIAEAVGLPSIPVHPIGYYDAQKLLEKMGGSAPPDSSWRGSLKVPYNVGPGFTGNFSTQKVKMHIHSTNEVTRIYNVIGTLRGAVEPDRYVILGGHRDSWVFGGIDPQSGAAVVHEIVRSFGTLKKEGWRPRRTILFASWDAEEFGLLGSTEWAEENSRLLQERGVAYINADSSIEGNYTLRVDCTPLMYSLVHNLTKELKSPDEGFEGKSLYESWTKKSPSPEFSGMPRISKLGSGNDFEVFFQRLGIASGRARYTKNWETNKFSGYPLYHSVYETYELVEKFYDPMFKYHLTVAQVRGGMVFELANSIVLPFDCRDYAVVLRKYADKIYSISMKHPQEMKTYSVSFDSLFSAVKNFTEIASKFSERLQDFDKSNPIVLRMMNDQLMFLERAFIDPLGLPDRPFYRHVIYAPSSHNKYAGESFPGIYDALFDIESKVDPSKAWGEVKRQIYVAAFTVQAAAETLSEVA
The assay is described as follows: binding screen.

Positions count from the first letter of the chain named. In names and notes the source's numbering stands. Like-named read-outs stand apart in the source and are kept apart here.

T1 sequence (P07766 23-126 limits assumed): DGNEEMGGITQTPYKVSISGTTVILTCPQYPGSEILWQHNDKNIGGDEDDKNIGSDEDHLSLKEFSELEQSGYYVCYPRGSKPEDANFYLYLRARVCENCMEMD

B1: CD3.97 (bispecific antibody, V domains shown)
VH: EVQLLESGGGIVQPGGSLKLSCAASGFTFNTYAMNWVRQAPGKGLEWVARIRSKYNNYATYYADSVKDRFTISRDDSKNTVGLQMNNLKTEDTAVYYCVRHENFGNSYVSWFAHWGQGTLVTVSS
VL: ELVVTQEPSLTVSPGGTVTLTCRSSNGAVTSSNYANWVQQKPGQAPRGLIGGTNKRAPGTPARFSGSLLGGKAALTLSGVQPEDEAVYYCALWYPNLWVFGGGTKLTVL
notes: paTCE with PSMA.5; also called AC3426; Y79G
Regarding B1, the equilibrium dissociation constant (Kd) in assay [1] was found to be 121 nM.

B2: CD3.104 (bispecific antibody, V domains shown)
VH: B1 VH with G82Y
VL: B1 VL with L69Q
notes: paTCE with PSMA.5; also called AC3433; L67Q
Take B2: the Kd in assay [1] stood at 4.6 nM.

B3: CD3.99 (bispecific antibody, V domains shown)
VH: B1 VH with G82Y, N87E
VL: B1 VL
notes: paTCE with PSMA.5; also called AC3428; N82bE
Molecule B3 came in with a Kd in assay [1] of 5.9 nM.

B4: CD3.103 (bispecific antibody, V domains shown)
VH: B1 VH with A49G, Y58G, D68G, G82Y, N87S
VL: B1 VL
notes: paTCE with PSMA.5; also called AC3432; A49G, Y52cG, D65G, N82bS
For the molecule B4, the Kd is 11.4 nM in assay [1] and 13.5 nM in assay [2].

B5: CD3.100 (bispecific antibody, V domains shown)
VH: B1 VH with G82Y, N87Q
VL: B1 VL
notes: paTCE with PSMA.5; also called AC3429; N82bQ
B5: the Kd in assay [1] was found to be 7.1 nM.

B6: CD3.107 (bispecific antibody, V domains shown)
VH: B1 VH with G82Y
VL: B1 VL with L68S
notes: paTCE with PSMA.5; also called AC3436; L66S
B6 showed a Kd in assay [1] of 7.3 nM.

B7: CD3.105 (bispecific antibody, V domains shown)
VH: B1 VH with G82Y
VL: B1 VL with G70E
notes: paTCE with PSMA.5; also called AC3434; G68E
The molecule B7 came in with a Kd in assay [1] of 4.9 nM.

B8: CD3.110 (bispecific antibody, V domains shown)
VH: B1 VH with G82Y
VL: B1 VL with L68T
notes: paTCE with PSMA.5; also called AC3439; L66T
Take B8: the affinity in assay [1], expressed as Kd, was 8.9 nM.

B9: CD3.108 (bispecific antibody, V domains shown)
VH: B1 VH with G82Y
VL: B1 VL with L68K
notes: paTCE with PSMA.5; also called AC3437; L66K
Regarding B9, in assay [1], the affinity, expressed as Kd, was 3.2 nM.

B10: CD3.102 (bispecific antibody, V domains shown)
VH: B1 VH with G82Y, N87Y
VL: B1 VL
notes: paTCE with PSMA.5; also called AC3431; N82bY
In assay [1], B10 came in with a dissociation constant Kd of 5.2 nM.

B11: CD3.98 (bispecific antibody, V domains shown)
VH: B1 VH with G82S
VL: B1 VL
notes: paTCE with PSMA.5; also called AC3427; Y79S
In assay [1], B11 yielded a Kd of 9.6 nM.

B12: CD3.101 (bispecific antibody, V domains shown)
VH: B1 VH with G82Y, N87S
VL: B1 VL
notes: paTCE with PSMA.5; also called AC3430; N82bS
For B12, the Kd in assay [1] was 4.8 nM.

B13: CD3.106 (bispecific antibody, V domains shown)
VH: B1 VH with G82Y
VL: B1 VL with L69D
notes: paTCE with PSMA.5; also called AC3435; L67D
B13 gave an equilibrium dissociation constant (Kd) in assay [1] of 6.1 nM.

B14: CD3.109 (bispecific antibody, V domains shown)
VH: B1 VH with G82Y
VL: B1 VL with L68N
notes: paTCE with PSMA.5; also called AC3438; L66N
As for B14, the Kd in assay [1] came out at 8.3 nM.

B15: PSMA.250 (bispecific antibody, V domains shown)
VH: QVQLVESGGGVVQPGRSLRLSCAASGRTFGIYVMGWYRQAPGKEREFVAAMSWSGSNRKVSDSVKGRFTISRDNSKNTLYLQMNSLRAEDTAVYYCAASNKLYGRTWYDFNESDYWGQGTQVTVSS
notes: TCE with CD3.23; also called AC3461
The molecule B15 displayed a Kd in assay [3] of 6.2 nM.

B16: PSMA.270 (bispecific antibody, V domains shown)
VH: B15 VH with M34W, Y37V, A49G, M51I, K101R, L102T
notes: TCE with CD3.23; also called AC3479
Take B16: the Kd in assay [3] turned out to be 6.5 nM.

B17: PSMA.285 (bispecific antibody, V domains shown)
VH: B15 VH with M34F, Y37V, A49G, M51I, K101R
notes: TCE with CD3.23; also called AC3494
In assay [3], B17 gave a Kd of 3.1 nM.

B18: PSMA.279 (bispecific antibody, V domains shown)
VH: B15 VH with Y37F, A49G, M51I, K101R, L102M
notes: TCE with CD3.23; also called AC3488
B18 returned a Kd in assay [3] of 2.3 nM.

B19: PSMA.268 (bispecific antibody, V domains shown)
VH: B15 VH with V33A, Y37V, A49G, M51I, K101R, L102T
notes: TCE with CD3.23; also called AC3477
Consider B19, for which binding in assay [3] was characterised by a dissociation constant (Kd) of 131 nM.

B20: PSMA.266 (bispecific antibody, V domains shown)
VH: B15 VH with M34W, Y37V
notes: TCE with CD3.23; also called AC3475
As for B20, in assay [3], the Kd was 4.6 nM.

B21: PSMA.280 (bispecific antibody, V domains shown)
VH: B15 VH with V33A, Y37V, K101R, L102M
notes: TCE with CD3.23; also called AC3489
On to B21, for which the dissociation constant Kd in assay [3] amounted to 16.3 nM.

B22: PSMA.278 (bispecific antibody, V domains shown)
VH: B15 VH with M34W, Y37V, A49G, M51I, K101R, L102M
notes: TCE with CD3.23; also called AC3487
In assay [3], B22 came in with a Kd of 3.9 nM.

B23: PSMA.273 (bispecific antibody, V domains shown)
VH: B15 VH with M34F, Y37V, K101R, L102T
notes: TCE with CD3.23; also called AC3482
For the molecule B23, in assay [3], the Kd is 16.6 nM.

B24: PSMA.251 (bispecific antibody, V domains shown)
VH: B15 VH with M51I
notes: TCE with CD3.23; also called AC3462
The molecule B24 registered a Kd in assay [3] of 5.1 nM.

B25: PSMA.255 (bispecific antibody, V domains shown)
VH: B15 VH with M51I, K101R, L102Y
notes: TCE with CD3.23; also called AC3466
With B25, binding in assay [3] was put at a Kd of 18.9 nM.

B26: PSMA.283 (bispecific antibody, V domains shown)
VH: B15 VH with Y37F, K101R, L102M
notes: TCE with CD3.23; also called AC3492
With B26, the affinity in assay [3], expressed as Kd, was 3.5 nM.

B27: PSMA.269 (bispecific antibody, V domains shown)
VH: B15 VH with M34F, Y37V, A49G, M51I, K101R, L102T
notes: TCE with CD3.23; also called AC3478
For the molecule B27, binding in assay [3] was put at a Kd of 5.5 nM.

B28: PSMA.257 (bispecific antibody, V domains shown)
VH: B15 VH with M51I, K101R
notes: TCE with CD3.23; also called AC3468
For B28, binding in assay [3] was characterised by a dissociation constant (Kd) of 2.3 nM.

B29: PSMA.265 (bispecific antibody, V domains shown)
VH: B15 VH with M34F, Y37V
notes: TCE with CD3.23; also called AC3474
B29 showed a Kd in assay [3] of 3.9 nM.

B30: PSMA.271 (bispecific antibody, V domains shown)
VH: B15 VH with Y37F, A49G, M51I, K101R, L102T
notes: TCE with CD3.23; also called AC3480
As to B30, the Kd in assay [3] amounted to 9.1 nM.

B31: PSMA.276 (bispecific antibody, V domains shown)
VH: B15 VH with V33A, Y37V, A49G, M51I, K101R, L102M
notes: TCE with CD3.23; also called AC3485
In assay [3], B31 yielded an equilibrium dissociation constant (Kd) of 10.5 nM.

B32: PSMA.287 (bispecific antibody, V domains shown)
VH: B15 VH with Y37F, A49G, M51I, K101R
notes: TCE with CD3.23; also called AC3496
As to B32, binding in assay [3] was characterised by a dissociation constant (Kd) of 2.3 nM.

B33: PSMA.282 (bispecific antibody, V domains shown)
VH: B15 VH with M34W, Y37V, K101R, L102M
notes: TCE with CD3.23; also called AC3491
In assay [3], B33 returned a Kd of 8.7 nM.

B34: PSMA.284 (bispecific antibody, V domains shown)
VH: B15 VH with V33A, Y37V, A49G, M51I, K101R
notes: TCE with CD3.23; also called AC3493
Turning to B34, the Kd in assay [3] amounted to 4.1 nM.

B35: PSMA.256 (bispecific antibody, V domains shown)
VH: B15 VH with K101R
notes: TCE with CD3.23; also called AC3467
In assay [3], B35 returned a dissociation constant Kd of 3.4 nM.

B36: PSMA.252 (bispecific antibody, V domains shown)
VH: B15 VH with K101R, L102W
notes: TCE with CD3.23; also called AC3463
B36: the affinity in assay [3], expressed as Kd, was 15.9 nM.

B37: PSMA.274 (bispecific antibody, V domains shown)
VH: B15 VH with M34W, Y37V, K101R, L102T
notes: TCE with CD3.23; also called AC3483
Consider B37, for which, in assay [3], binding was characterised by a dissociation constant (Kd) of 39.6 nM.

B38: PSMA.288 (bispecific antibody, V domains shown)
VH: B15 VH with V33A, Y37V, K101R
notes: TCE with CD3.23; also called AC3497
Take B38: the Kd in assay [3] came to 6 nM.

B39: PSMA.261 (bispecific antibody, V domains shown)
VH: B15 VH with M34F, Y37V, A49G, M51I
notes: TCE with CD3.23; also called AC3470
Take B39: in assay [3], the Kd amounted to 2.1 nM.

B40: PSMA.277 (bispecific antibody, V domains shown)
VH: B15 VH with M34F, Y37V, A49G, M51I, K101R, L102M
notes: TCE with CD3.23; also called AC3486
As for B40, binding in assay [3] was put at a Kd of 3.1 nM.

B41: PSMA.264 (bispecific antibody, V domains shown)
VH: B15 VH with V33A, Y37V
notes: TCE with CD3.23; also called AC3473
For the molecule B41, in assay [3], binding was put at a Kd of 18.6 nM.

B42: PSMA.260 (bispecific antibody, V domains shown)
VH: B15 VH with V33A, Y37V, A49G, M51I
notes: TCE with CD3.23; also called AC3469
Take B42: in assay [3], the Kd came to 11.4 nM.

B43: PSMA.253 (bispecific antibody, V domains shown)
VH: B15 VH with M51I, K101R, L102W
notes: TCE with CD3.23; also called AC3464
B43 returned a Kd in assay [3] of 8.5 nM.

B44: PSMA.286 (bispecific antibody, V domains shown)
VH: B15 VH with M34W, Y37V, A49G, M51I, K101R
notes: TCE with CD3.23; also called AC3495
Turning to B44, the binding result in assay [3] is listed as “no binding”.

B45: PSMA.254 (bispecific antibody, V domains shown)
VH: B15 VH with K101R, L102Y
notes: TCE with CD3.23; also called AC3465
In assay [3], B45 gave an equilibrium dissociation constant (Kd) of 41 nM.

B46: PSMA.281 (bispecific antibody, V domains shown)
VH: B15 VH with M34F, Y37V, K101R, L102M
notes: TCE with CD3.23; also called AC3490
In assay [3], B46 gave a Kd of 5.3 nM.

B47: PSMA.267 (bispecific antibody, V domains shown)
VH: B15 VH with Y37F
notes: TCE with CD3.23; also called AC3476
In assay [3], B47 came in with a Kd of 5.6 nM.

B48: PSMA.272 (bispecific antibody, V domains shown)
VH: B15 VH with V33A, Y37V, K101R, L102T
notes: TCE with CD3.23; also called AC3481
In turn, B48 registered a Kd in assay [3] of 504 nM.

B49: PSMA.275 (bispecific antibody, V domains shown)
VH: B15 VH with Y37F, K101R, L102T
notes: TCE with CD3.23; also called AC3484
Turning to B49, binding in assay [3] was put at a Kd of 20.5 nM.

In general, Kd refers to the constant that tells how readily two partners part at equilibrium.

Source of the values: patent US20260055205A1 (published 2026).
